As usually defined, the EC50 is the concentration giving half of the maximal effect. Lower therefore signals higher potency in that assay. As a reminder, the Kd is the constant that tells how readily two partners part at equilibrium.

In test [1] the target is Human DPP4 on stable 293T cells (293T-hDPP4) (human) (UniProt P27487).
Test [2] concerns the target S1(349-590)-hFc (MERS-CoV; human) (UniProt K9N5Q8). Nature of the test: BLI (Octet), wild type RBD-hFc. In general terms: BLI is a label-free optical method that tracks binding on a fibre tip over time.

Regarding “S1(349-590)-hFc (from UniProt K9N5Q8 349-590) (Fc fusion)”, the EC50 in test [1] was 0.015 µg/mL.

Regarding “Recombinant soluble human DPP4 (from UniProt P27487 29-766) (receptor)”, in test [2], the Kd was 21.4 nM.

Source of the values: patent publication US20190194299A1.
